Non-standard residues stand in square brackets, D forms with d.
B1: cRGDfK peptide, cyclo[Arg-Gly-Asp-D-Phe-Lys] (peptide)
peptide: cyclo(RGD[dF]K)
notes: cyclic pentapeptide, a cilengitide analog; f = D-Phe; Unlabelled soluble peptide used as titrator
B2: Biogen-αVβ1.5 Fab (Fab, V domains shown)
VH: EVQLVESGGGVVQPGRSLRLSCAASGFTFKYYGMHWVRQAPGKGLEWVASIWYDGSNKKYADSVKGRFTISRDNSKNTLYLQMNSLRAEDTAVYYCARGGPTRGDGTRVYYYGMDVWGQGTTVTVSS
VL: EIVMTQSPATLSVSPGERATLSCRASQSVSSNLAWYQQKPGQAPRLLIYSASTRATGIPARFSGSGSGTEFTLTISSLQSEDFAVYYCQQYYHHPFTFGGGTKVEIK
notes: heavy chain before CDR3; heavy-chain CDR3 (RGD motif highlighted); heavy chain after CDR3 up to the papain cut (IgG1); light chain; Expressed as IgG1 and cut to Fab with papain; also called Exemplary Antibody 5; anti-αVβ1; source: Expi293F, recombinantly expressed as IgG1; Fab generated with papain, purified (Hi-Trap Q)

Experiments:
[1] = molecular target: T1, integrin α5β1 ectodomain (soluble) (human, UniProt P08648 42-995; P05556 21-728); experiment: fluorescence polarisation; competition with 10 nM FITC-cyclic-… binding to soluble integrin ectodomains in solution (50 nM α5β1, 200 nM αVβ1, 20 nM αVβ3, 20 nM αVβ5); global three-parameter dose-response fit; settings: both partners purified
T1 construct: human integrin α5 ectodomain; N-terminal secretion peptide and HRV3C digestion site in the construct; human integrin β1 ectodomain; source: Expi293F, transiently transfected, purified from culture supernatant (Ni-NTA, size-exclusion chromatography)

[2] = molecular target: T2, integrin α5β1, intact, on wild type K562 cells (human (endogenous in K562), UniProt P08648 42-1049; P05556 21-798); experiment: flow cytometry on cells; intact integrins on K562 cells in L15 medium with 1% BSA and 1 mM Mn2+, no washing; titrator's binding read as enhancement of binding of AF647-9EG7 Fab (10 nM); EC50 of a three-parameter dose-response fit taken as Kd; settings: one partner purified
T2 construct: integrin α5 subunit, natively expressed on K562 cells; integrin β1 subunit, natively expressed on K562 cells; also called K562 WT (α5β1); K562 WT; source: endogenous, on wild type K562 cells

[3] = molecular target: T2, integrin α5β1, intact, on wild type …; experiment: flow cytometry on cells; intact integrins on K562 cells in L15 medium with 1% BSA, without Mn2+, no washing; titrator's binding read as enhancement of binding of fluorescent 9EG7 Fab (10 nM); EC50 of a three-parameter dose-response fit taken as Kd; settings: one partner purified
[4] = molecular target: T3, integrin α5β1 ectodomain (soluble) (human, UniProt P08648;P05556); experiment: fluorescence polarisation; competition with 10 nM FITC-cyclic-… binding to soluble integrin ectodomains in solution (50 nM α5β1, 200 nM αVβ1, 20 nM αVβ3, 20 nM αVβ5); global three-parameter dose-response fit; settings: both partners purified
T3 construct: human integrin α5 ectodomain; N-terminal secretion peptide and HRV3C digestion site in the construct; human integrin β1 ectodomain; source: Expi293F, transiently transfected, purified from culture supernatant (Ni-NTA, size-exclusion chromatography)

[5] = molecular target: T4, integrin αVβ3 ectodomain (soluble) (human, UniProt P06756;P05106); experiment: as above; settings: both partners purified
T4 construct: human integrin αV ectodomain; N-terminal secretion peptide and HRV3C digestion site in the construct; human integrin β3 ectodomain; source: Expi293F, transiently transfected, purified from culture supernatant (Ni-NTA, size-exclusion chromatography)

[6] = molecular target: T5, integrin α5β1, intact, on wild type K562 cells (human (endogenous in K562), UniProt P08648;P05556); experiment: flow cytometry on cells; intact integrins on K562 cells in L15 medium with 1% BSA and 1 mM Mn2+, no washing; titrator's binding read as enhancement of binding of AF647-9EG7 Fab (10 nM); EC50 of a three-parameter dose-response fit taken as Kd; settings: one partner purified
T5 construct: integrin α5 subunit, natively expressed on K562 cells; integrin β1 subunit, natively expressed on K562 cells; also called K562 WT (α5β1); K562 WT; source: endogenous, on wild type K562 cells

[7] = molecular target: T6, integrin αVβ1, intact, on K562 αVβ1 stable transfectants (human, UniProt P06756;P05556); experiment: as above; settings: one partner purified
T6 construct: integrin αV subunit; integrin β1 subunit; the cells also express native α5β1, whose share the legend calls negligible

[8] = molecular target: T5, integrin α5β1, intact, on wild type …; experiment: flow cytometry on cells; intact integrins on K562 cells in L15 medium with 1% BSA, without Mn2+, no washing; titrator's binding read as enhancement of binding of fluorescent 9EG7 Fab (10 nM); EC50 of a three-parameter dose-response fit taken as Kd; settings: one partner purified
[9] = molecular target: T6, integrin αVβ1, intact, on K562 αVβ1 …; experiment: as above; settings: one partner purified

T2 sequence (P08648 42-1049, chain 1 of 2): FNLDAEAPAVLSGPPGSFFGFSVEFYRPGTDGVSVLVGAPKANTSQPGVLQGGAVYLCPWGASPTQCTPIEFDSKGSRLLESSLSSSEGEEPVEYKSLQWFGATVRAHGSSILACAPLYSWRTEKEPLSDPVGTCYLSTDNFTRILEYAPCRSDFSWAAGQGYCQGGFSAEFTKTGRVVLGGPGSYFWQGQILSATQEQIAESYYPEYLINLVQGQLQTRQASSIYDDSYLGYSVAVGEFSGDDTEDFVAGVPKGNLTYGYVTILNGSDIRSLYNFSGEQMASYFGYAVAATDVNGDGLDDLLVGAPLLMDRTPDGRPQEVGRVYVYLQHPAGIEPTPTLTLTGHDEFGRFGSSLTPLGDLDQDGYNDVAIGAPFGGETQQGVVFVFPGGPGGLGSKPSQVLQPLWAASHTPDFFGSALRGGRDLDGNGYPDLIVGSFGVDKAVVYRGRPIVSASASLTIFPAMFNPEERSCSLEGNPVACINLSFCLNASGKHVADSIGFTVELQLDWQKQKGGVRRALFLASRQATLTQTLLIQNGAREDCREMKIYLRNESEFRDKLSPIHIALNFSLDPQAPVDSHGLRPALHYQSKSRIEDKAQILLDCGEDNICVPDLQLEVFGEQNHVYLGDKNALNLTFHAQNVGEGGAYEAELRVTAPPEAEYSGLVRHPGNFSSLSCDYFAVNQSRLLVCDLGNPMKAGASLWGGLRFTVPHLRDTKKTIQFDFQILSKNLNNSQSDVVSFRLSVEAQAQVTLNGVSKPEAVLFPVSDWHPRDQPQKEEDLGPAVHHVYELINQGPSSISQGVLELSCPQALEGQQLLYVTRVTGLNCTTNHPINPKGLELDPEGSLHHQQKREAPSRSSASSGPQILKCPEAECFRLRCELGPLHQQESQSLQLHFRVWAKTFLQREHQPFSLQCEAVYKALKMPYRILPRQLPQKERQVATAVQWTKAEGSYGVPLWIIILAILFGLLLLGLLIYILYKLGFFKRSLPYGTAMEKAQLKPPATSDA
T2 sequence (P05556 21-798, chain 2 of 2): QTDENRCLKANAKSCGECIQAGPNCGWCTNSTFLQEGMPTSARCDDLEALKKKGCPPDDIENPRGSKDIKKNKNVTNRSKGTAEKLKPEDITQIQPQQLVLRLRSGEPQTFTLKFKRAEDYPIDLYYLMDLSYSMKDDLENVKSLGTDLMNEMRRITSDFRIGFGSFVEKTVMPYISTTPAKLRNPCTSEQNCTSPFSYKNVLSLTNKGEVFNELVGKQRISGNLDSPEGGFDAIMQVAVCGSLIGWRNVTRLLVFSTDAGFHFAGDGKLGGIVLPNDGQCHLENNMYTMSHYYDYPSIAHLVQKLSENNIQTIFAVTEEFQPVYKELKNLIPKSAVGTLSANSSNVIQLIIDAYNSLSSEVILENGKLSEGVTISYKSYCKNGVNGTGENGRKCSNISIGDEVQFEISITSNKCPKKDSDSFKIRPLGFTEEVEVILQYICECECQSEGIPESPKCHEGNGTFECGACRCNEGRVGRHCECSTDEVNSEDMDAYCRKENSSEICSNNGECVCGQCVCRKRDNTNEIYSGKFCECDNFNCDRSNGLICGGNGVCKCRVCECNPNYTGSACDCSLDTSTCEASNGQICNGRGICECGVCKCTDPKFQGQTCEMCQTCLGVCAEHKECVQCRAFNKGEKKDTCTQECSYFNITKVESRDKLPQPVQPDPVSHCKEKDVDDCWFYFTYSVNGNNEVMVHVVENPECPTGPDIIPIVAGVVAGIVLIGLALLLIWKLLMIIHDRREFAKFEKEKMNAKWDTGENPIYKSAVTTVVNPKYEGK
T5 sequence (P08648 42-1049, chain 1 of 2): as the sequence (P08648 42-1049, chain 1 of 2) above
T5 sequence (P05556 21-798, chain 2 of 2): as the sequence (P05556 21-798, chain 2 of 2) above
T6 sequence (P06756 31-1048, chain 1 of 2): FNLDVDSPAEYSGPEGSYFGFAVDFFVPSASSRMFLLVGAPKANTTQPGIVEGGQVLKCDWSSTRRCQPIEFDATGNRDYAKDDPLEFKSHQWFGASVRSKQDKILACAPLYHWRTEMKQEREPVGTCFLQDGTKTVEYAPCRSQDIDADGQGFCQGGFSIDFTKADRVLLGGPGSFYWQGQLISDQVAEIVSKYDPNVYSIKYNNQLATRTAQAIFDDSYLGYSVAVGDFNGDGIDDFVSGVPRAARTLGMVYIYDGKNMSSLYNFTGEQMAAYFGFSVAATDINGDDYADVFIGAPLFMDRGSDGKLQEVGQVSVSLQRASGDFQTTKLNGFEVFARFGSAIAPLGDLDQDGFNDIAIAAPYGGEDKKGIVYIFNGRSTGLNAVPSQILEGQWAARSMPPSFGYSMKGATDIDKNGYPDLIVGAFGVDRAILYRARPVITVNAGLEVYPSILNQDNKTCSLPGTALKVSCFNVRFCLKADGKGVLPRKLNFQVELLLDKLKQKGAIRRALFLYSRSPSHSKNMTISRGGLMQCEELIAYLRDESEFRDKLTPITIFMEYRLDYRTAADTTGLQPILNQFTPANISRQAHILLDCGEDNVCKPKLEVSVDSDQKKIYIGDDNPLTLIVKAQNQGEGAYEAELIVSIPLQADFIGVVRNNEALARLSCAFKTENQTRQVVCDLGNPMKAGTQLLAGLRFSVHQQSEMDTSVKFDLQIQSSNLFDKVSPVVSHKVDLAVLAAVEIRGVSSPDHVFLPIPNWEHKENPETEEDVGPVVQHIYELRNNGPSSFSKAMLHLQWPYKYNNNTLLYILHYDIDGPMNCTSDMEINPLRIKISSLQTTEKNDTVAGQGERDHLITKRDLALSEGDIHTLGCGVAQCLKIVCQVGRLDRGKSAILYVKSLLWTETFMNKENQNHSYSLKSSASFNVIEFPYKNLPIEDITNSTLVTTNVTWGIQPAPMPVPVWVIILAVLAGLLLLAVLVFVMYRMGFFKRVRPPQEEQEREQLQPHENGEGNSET
T6 sequence (P05556 21-798, chain 2 of 2): as the sequence (P05556 21-798, chain 2 of 2) above
T1 sequence (P08648 42-995, chain 1 of 2): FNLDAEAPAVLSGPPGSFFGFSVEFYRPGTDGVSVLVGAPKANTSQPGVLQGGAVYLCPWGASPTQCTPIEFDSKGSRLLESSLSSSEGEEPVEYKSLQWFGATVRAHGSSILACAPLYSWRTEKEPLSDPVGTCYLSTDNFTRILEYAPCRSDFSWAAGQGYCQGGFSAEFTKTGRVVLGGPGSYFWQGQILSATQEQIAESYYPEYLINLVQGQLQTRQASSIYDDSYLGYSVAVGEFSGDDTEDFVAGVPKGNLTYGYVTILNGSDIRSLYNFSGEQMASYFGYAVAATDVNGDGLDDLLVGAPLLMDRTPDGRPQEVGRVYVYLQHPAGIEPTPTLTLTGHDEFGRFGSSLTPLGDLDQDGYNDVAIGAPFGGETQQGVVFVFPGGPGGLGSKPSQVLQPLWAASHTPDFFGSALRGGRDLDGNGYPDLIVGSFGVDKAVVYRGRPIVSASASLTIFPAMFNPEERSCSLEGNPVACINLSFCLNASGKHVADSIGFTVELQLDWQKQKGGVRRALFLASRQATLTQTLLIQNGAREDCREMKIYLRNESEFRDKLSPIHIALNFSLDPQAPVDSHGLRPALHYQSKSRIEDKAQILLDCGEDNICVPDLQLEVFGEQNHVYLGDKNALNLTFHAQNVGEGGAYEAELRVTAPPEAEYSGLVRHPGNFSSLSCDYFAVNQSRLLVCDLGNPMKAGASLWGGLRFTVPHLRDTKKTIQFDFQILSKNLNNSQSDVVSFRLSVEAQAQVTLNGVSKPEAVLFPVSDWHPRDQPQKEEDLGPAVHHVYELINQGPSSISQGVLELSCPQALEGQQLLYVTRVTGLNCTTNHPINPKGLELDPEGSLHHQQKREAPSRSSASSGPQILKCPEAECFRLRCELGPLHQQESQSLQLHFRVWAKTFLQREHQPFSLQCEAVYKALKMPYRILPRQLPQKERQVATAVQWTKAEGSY
T1 sequence (P05556 21-728, chain 2 of 2): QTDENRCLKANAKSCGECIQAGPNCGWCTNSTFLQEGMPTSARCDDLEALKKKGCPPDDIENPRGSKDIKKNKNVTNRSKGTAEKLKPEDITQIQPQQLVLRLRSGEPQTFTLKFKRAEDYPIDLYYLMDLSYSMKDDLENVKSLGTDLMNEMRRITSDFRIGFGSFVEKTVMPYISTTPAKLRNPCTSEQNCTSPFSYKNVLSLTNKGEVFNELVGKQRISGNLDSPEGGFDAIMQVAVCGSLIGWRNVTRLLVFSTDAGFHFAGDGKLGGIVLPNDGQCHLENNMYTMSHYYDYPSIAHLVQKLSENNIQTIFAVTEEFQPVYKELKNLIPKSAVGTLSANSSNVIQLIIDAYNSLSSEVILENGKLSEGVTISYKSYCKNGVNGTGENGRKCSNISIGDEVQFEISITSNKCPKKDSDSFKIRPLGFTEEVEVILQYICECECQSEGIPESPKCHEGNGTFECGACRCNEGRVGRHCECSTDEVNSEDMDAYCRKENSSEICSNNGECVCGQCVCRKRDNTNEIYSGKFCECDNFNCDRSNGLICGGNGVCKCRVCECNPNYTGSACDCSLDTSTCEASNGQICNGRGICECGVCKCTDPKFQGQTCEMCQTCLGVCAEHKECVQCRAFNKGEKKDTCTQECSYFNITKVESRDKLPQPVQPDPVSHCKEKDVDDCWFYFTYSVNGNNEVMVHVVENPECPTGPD
T3 sequence (P08648 42-995, chain 1 of 2): as the sequence (P08648 42-995, chain 1 of 2) above
T3 sequence (P05556 21-728, chain 2 of 2): as the sequence (P05556 21-728, chain 2 of 2) above

Row | Binder | IC50 [1] [µM] | Kd [2] [µM] | Kd [3] [µM] | IC50 [4] [µM] | IC50 [5] [µM] | Kd [6] [µM] | Kd [7] [µM] | Kd [8] [µM] | Kd [9] [µM]
1 | B1 | 1.2 ± 0.5 | 11 | 610 | – | – | – | – | – | –
2 | B2 | – | – | – | 0.2 ± 0.1 | 21 ± 3 | 4.3 | 0.0236 | 19 | 0.117
